Assay [1] deals with human cystatin C (Cst-3), E. coli expressed (human) (UniProt P01034). Nature of the assay: SEC; gel permeation on Superdex 200 in 20 mM Tris, 150 mM NaCl, pH 7.1, after cation exchange; monomer and dimer told by elution. In general terms: Size exclusion chromatography separates by hydrodynamic size, large species first.
A further assay has as its target papain (UniProt P00784).

The text below walks through data of PMC7881039.

UniProt P00784, sequence (P00784 134-345): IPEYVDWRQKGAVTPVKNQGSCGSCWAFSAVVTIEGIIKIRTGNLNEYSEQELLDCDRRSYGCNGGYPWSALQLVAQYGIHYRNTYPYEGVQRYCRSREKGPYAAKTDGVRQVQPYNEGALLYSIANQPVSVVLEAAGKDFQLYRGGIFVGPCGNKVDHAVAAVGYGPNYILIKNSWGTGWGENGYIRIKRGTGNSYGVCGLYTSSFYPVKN

In assay [1], “human cystatin C (Cst-3), E. coli expressed (from UniProt P01034 27-146) (natural protein)” returned a stoichiometry N of 2.

“murine cystatin C (Cst-3), E. coli expressed (from UniProt P21460 21-140) (natural protein)”: in the assay with papain, the inhibition of papain activity (colorimetric peptide substrate Z-Phe-Arg-pNA, pH 5.5) by 60 nM Cst-3 preincubated with equimolar heparin or HS hexasaccharide, against apo Cst-3 amounted to 80%.

The stoichiometry N is a count of units in the complex or per binding partner.
